Substrate in this data set: CC(C)=CCNc1ncnc2nc[nH]c12
The data set can be described thus: UV absorbance steady-state kinetics. It counts as biochemical, Paraglaciecola sp. T6c. The note with it: hydrolytic deamination; compound 1 identified by kcat/Km 1.2 × 10^7.

B1: Patl2390 (Paraglaciecola sp. T6c) (protein)
chain: MQTQPLDIQQFISDMPKAELHVHLEGTLEPELSFALAVKNRIPLEFDTPEQLIAAYDFHDLPSFLKIYYAGMNVLIKEEDFYQLTWDYLTKAASENIVYAELFFDPQAHTSRGVSFETIITGIHKAQLDAEQKLGIRSQLIMCFLRELSAESAMEHLKLAMPYLPWLVGVGLDSNERDNPPAKFAEVFEYAKALDLKLTMHCDVNQHNTLVHIKQCLDDIQVDRIDHGVNALQDPALLEKIKHKQLGLTVCPISNRFVVQSLTSNEVRQMLEHELLVTINSDDPAYFRAYLNENFIELQKEGQFSAQEMITLVENAFKVSWLKDTEISQYLYQVSQYVKQAEYQAA
As to B1, the kcat is 7.3 ± 0.1 s⁻¹ and the catalytic efficiency (kcat/Km) stood at 1.2e+07 M⁻¹ s⁻¹.

(Values after paper PMC3199332.)
